Molecular target: T1, fluorescently labeled Qc-SNARE Vam7 (yeast, UniProt P32912 1-316, labeled with a fluorophore distinct from that of Qb)
T1 sequence: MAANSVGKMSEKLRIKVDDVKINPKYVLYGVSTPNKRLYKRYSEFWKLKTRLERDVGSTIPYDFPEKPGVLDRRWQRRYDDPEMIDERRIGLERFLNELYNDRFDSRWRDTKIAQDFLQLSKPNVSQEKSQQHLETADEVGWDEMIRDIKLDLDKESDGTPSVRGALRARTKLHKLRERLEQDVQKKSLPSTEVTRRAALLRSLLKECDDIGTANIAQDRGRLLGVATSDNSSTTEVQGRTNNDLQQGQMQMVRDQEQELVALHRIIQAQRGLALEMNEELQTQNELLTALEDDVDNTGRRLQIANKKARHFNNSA
Experiment: FRET or BRET

B1: fluorescent Qb-SNARE domain (cysteine-tagged synthetic SNARE domain of the Qb-SNARE Vti1) (domain or fragment)
chain: HAILQKSGDRLKDASRIANETEGIGSQIMMDLRSQRETLENARQTLFQADSYVDKSIKTLKTM
modifications: also: cysteine tag with fluorophore (Alexa-568), tag not in given chain
In the case of B1, the “fold faster FRET with sQa than without sQa” value is reported as 100 fold.

— article PMC8693972 (Molecular Biology of the Cell, 2021)
